In the supplement of paper PMC5998384:

How the values were obtained:
HeLa Kyoto [1] = assay: solubility in G1/S (NP-40 vs SDS abundance) (log2 ratio); higher = more soluble; details: cell cycle stage: G1/S
HeLa Kyoto [2] = assay: solubility change mitosis vs G1/S (difference of NP-40 vs SDS log2 ratios) (log2 ratio difference); higher = more soluble in mitosis
HeLa Kyoto [3] = assay: thermal stability score vs G1/S (z-score of summed log2 fold changes over temperatures); higher = more thermally stable than in G1/S
HeLa Kyoto [4] = assay: melting temperature (median over replicates), in situ; higher = more thermally stable
[5] = cell cycle stage: early G1 (4.5 h after nocodazole release)
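Throughout, for melting temperature (median over replicates), in situ: HeLa Kyoto cells synchronized by double thymidine or nocodazole block, proteins quantified by TMT10plex mass spectrometry, three independent biological replicates.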
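Throughout, for solubility change mitosis vs G1/S (difference of NP-40 vs SDS log2 ratios): synchronized HeLa Kyoto cells (double thymidine block for G1/S, nocodazole release for mitosis), protein amounts in NP-40 versus SDS lysates quantified by mass spectrometry, three biological replicates.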
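Throughout, for solubility in G1/S (NP-40 vs SDS abundance): HeLa Kyoto cells arrested at G1/S by double thymidine block, proteins quantified by TMT10plex mass spectrometry in mild NP-40 versus SDS extracts, three biological replicates.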
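Throughout, for thermal stability score vs G1/S (z-score of summed log2 fold changes over temperatures): synchronized HeLa Kyoto cells, proteins quantified by TMT10plex mass spectrometry, three biological replicates, mitosis taken 0.5 h after nocodazole release, G1/S directly after double thymidine block.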

Sequence	solubility in G1/S (log2) (HeLa Kyoto [1])	solubility change mitosis (log2) (HeLa Kyoto [2])	thermal stability score (HeLa Kyoto [3]; [5])	thermal stability score (HeLa Kyoto [3]; cell cycle stage: mitosis)	melting temperature (HeLa Kyoto [4]; cell cycle stage: G1/S) [°C]	melting temperature (HeLa Kyoto [4]; cell cycle stage: mitosis) [°C]
MERREEQPGAAGAGAAPALDFTVENVEKALHQLYYDPNIENKNLAQKWLMQAQVSPQAWHFSWQLLQPDKVPEIQYFGASALHIKISRYWSDIPTDQYESLKAQLFTQITRFASGSKIVLTRLCVALASLALSMMPDAWPCAVADMVRLFQAEDSPVDGQGRCLALLELLTVLPEEFQTSRLPQYRKGLVRTSLAVECGAVFPLLEQLLQQPSSPSCVRQKVLKCFSSWVQLEVPLQDCEALIQAAFAALQDSELFDSSVEAIVNAISQPDAQRYVNTLLKLIPLVLGLQEQLRQAVQNGDMETSHGICRIAVALGENHSRALLDQVEHWQSFLALVNMIMFCTGIPGHYPVNETTSSLTLTFWYTLQDDILSFEAEKQAVYQQVYRPVYFQLVDVLLHKAQFPSDEEYGFWSSDEKEQFRIYRVDISDTLMYVYEMLGAELLSNLYDKLGRLLTSSEEPYSWQHTEALLYGFQSIAETIDVNYSDVVPGLIGLIPRISISNVQLADTVMFTIGALSEWLADHPVMINSVLPLVLHALGNPELSVSSVSTLKKICRECKYDLPPYAANIVAVSQDVLMKQIHKTSQCMWLMQALGFLLSALQVEEILKNLHSLISPYIQQLEKLAEEIPNPSNKLAIVHILGLLSNLFTTLDISHHEDDHEGPELRKLPVPQGPNPVVVVLQQVFQLIQKVLSKWLNDAQVVEAVCAIFEKSVKTLLDDFAPMVPQLCEMLGRMYSTIPQASALDLTRQLVHIFAHEPAHFPPIEALFLLVTSVTLTLFQQGPRDHPDIVDSFMQLLAQALKRKPDLFLCERLDVKAVFQCAVLALKFPEAPTVKASCGFFTELLPRCGEVESVGKVVQEDGRMLLIAVLEAIGGQASRSLMDCFADILFALNKHCFSLLSMWIKEALQPPGFPSARLSPEQKDTFSQQILRERVNKRRVKEMVKEFTLLCRGLHGTDYTADY [IPO13]	-0.335	-0.175	-0.535	-0.562	51.2	51
MESAIAEGGASRFSASSGGGGSRGAPQHYPKTAGNSEFLGKTPGQNAQKWIPARSTRRDDNSAANNSANEKERHDAIFRKVRGILNKLTPEKFDKLCLELLNVGVESKLILKGVILLIVDKALEEPKYSSLYAQLCLRLAEDAPNFDGPAAEGQPGQKQSTTFRRLLISKLQDEFENRTRNVDVYDKRENPLLPEEEEQRAIAKIKMLGNIKFIGELGKLDLIHESILHKCIKTLLEKKKRVQLKDMGEDLECLCQIMRTVGPRLDHERAKSLMDQYFARMCSLMLSKELPARIRFLLQDTVELREHHWVPRKAFLDNGPKTINQIRQDAVKDLGVFIPAPMAQGMRSDFFLEGPFMPPRMKMDRDPLGGLADMFGQMPGSGIGTGPGVIQDRFSPTMGRHRSNQLFNGHGGHIMPPTQSQFGEMGGKFMKSQGLSQLYHNQSQGLLSQLQGQSKDMPPRFSKKGQLNADEISLRPAQSFLMNKNQVPKLQPQITMIPPSAQPPRTQTPPLGQTPQLGLKTNPPLIQEKPAKTSKKPPPSKEELLKLTETVVTEYLNSGNANEAVNGVREMRAPKHFLPEMLSKVIILSLDRSDEDKEKASSLISLLKQEGIATSDNFMQAFLNVLDQCPKLEVDIPLVKSYLAQFAARAIISELVSISELAQPLESGTHFPLFLLCLQQLAKLQDREWLTELFQQSKVNMQKMLPEIDQNKDRMLEILEGKGLSFLFPLLKLEKELLKQIKLDPSPQTIYKWIKDNISPKLHVDKGFVNILMTSFLQYISSEVNPPSDETDSSSAPSKEQLEQEKQLLLSFKPVMQKFLHDHVDLQVSALYALQVHCYNSNFPKGMLLRFFVHFYDMEIIEEEAFLAWKEDITQEFPGKGKALFQVNQWLTWLETAEEEESEEEAD [EIF4G2]	0.402	0.0198	1.01	3.88	48.4	48.3
MESEDLSGRELTIDSIMNKVRDIKNKFKNEDLTDELSLNKISADTTDNSGTVNQIMMMANNPEDWLSLLLKLEKNSVPLSDALLNKLIGRYSQAIEALPPDKYGQNESFARIQVRFAELKAIQEPDDARDYFQMARANCKKFAFVHISFAQFELSQGNVKKSKQLLQKAVERGAVPLEMLEIALRNLNLQKKQLLSEEEKKNLSASTVLTAQESFSGSLGHLQNRNNSCDSRGQTTKARFLYGENMPPQDAEIGYRNSLRQTNKTKQSCPFGRVPVNLLNSPDCDVKTDDSVVPCFMKRQTSRSECRDLVVPGSKPSGNDSCELRNLKSVQNSHFKEPLVSDEKSSELIITDSITLKNKTESSLLAKLEETKEYQEPEVPESNQKQWQSKRKSECINQNPAASSNHWQIPELARKVNTEQKHTTFEQPVFSVSKQSPPISTSKWFDPKSICKTPSSNTLDDYMSCFRTPVVKNDFPPACQLSTPYGQPACFQQQQHQILATPLQNLQVLASSSANECISVKGRIYSILKQIGSGGSSKVFQVLNEKKQIYAIKYVNLEEADNQTLDSYRNEIAYLNKLQQHSDKIIRLYDYEITDQYIYMVMECGNIDLNSWLKKKKSIDPWERKSYWKNMLEAVHTIHQHGIVHSDLKPANFLIVDGMLKLIDFGIANQMQPDTTSVVKDSQVGTVNYMPPEAIKDMSSSRENGKSKSKISPKSDVWSLGCILYYMTYGKTPFQQIINQISKLHAIIDPNHEIEFPDIPEKDLQDVLKCCLKRDPKQRISIPELLAHPYVQIQTHPVNQMAKGTTEEMKYVLGQLVGLNSPNSILKAAKTLYEHYSGGESHNSSSSKTFEKKRGKK	0.176	0.0511	0.873	3.46	46.8	48.1
MESESESGAAADTPPLETLSFHGDEEIIEVVELDPGPPDPDDLAQEMEDVDFEEEEEEEGNEEGWVLEPQEGVVGSMEGPDDSEVTFALHSASVFCVSLDPKTNTLAVTGGEDDKAFVWRLSDGELLFECAGHKDSVTCAGFSHDSTLVATGDMSGLLKVWQVDTKEEVWSFEAGDLEWMEWHPRAPVLLAGTADGNTWMWKVPNGDCKTFQGPNCPATCGRVLPDGKRAVVGYEDGTIRIWDLKQGSPIHVLKGTEGHQGPLTCVAANQDGSLILTGSVDCQAKLVSATTGKVVGVFRPETVASQPSLGEGEESESNSVESLGFCSVMPLAAVGYLDGTLAIYDLATQTLRHQCQHQSGIVQLLWEAGTAVVYTCSLDGIVRLWDARTGRLLTDYRGHTAEILDFALSKDASLVVTTSGDHKAKVFCVQRPDR [AAMP]	-0.15	-0.112	-1.15	-3.66	51.3	51.6
